Where no end group is shown, it is not given here.
Target: T1, rat AT1aR (Rattus norvegicus, UniProt P25095)
T1 construct: ProLink (β-galactosidase enzyme-donor fragment, from the pCMV-ProLink vector)
T1 sequence (P25095 1-359): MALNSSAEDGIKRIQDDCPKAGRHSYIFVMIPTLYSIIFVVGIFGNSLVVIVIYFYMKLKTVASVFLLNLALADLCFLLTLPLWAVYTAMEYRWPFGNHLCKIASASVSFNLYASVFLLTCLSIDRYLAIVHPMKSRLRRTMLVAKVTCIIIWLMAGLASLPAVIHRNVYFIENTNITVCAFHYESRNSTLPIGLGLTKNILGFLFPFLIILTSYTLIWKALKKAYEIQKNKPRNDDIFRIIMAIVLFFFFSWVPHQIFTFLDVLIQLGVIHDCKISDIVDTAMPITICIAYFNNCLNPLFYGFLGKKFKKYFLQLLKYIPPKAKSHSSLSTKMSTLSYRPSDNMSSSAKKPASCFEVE
Assay: PathHunter β-arrestin-2 recruitment assay, rat AT1aR
Type: cell-based
Settings: PathHunter β-arrestin HEK293 cells, inactive = EC50 greater than 10 uM

Question: `CCCCC(=O)N(Cc1ccc(-c2ccccc2-c2nnn[nH]2)cc1)[C@H](C(=O)O)C(C)C` [Valsartan] was tested. Which “rat AT1aR b-arrestin2 EC50 (M)” value did it give?
Answer: The value was “inactive”.

Target: human angiotensin 2 type 1 receptor (human) (UniProt P30556)
Assay: cell-based or functional assay
Settings: not given

Chain of human angiotensin 2 type 1 receptor (human) (P30556 whole entry): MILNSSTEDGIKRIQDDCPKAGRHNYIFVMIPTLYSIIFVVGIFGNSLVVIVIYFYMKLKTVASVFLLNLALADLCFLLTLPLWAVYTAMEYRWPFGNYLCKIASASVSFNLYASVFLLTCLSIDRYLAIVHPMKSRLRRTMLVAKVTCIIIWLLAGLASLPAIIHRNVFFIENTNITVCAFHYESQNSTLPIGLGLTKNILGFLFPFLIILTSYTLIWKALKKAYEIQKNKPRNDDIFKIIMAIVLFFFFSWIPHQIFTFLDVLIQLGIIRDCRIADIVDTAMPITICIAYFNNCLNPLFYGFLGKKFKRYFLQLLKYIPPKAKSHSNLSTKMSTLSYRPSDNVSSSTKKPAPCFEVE

Question: How did the IP One EC50 turn out when DRVYYHP (D-residue; C-terminal amide) [SEQ ID NO: 58 (D-Asp-Arg-Val-Tyr-Tyr-His-Pro-NH2)] was run?
Answer: Its IP One EC50 is > 10000 nM.

Question: What about the b-arrestin2 EC50 of the same molecule?
Answer: Its b-arrestin2 EC50 is 330 nM.

Question: And the b-arrestin2 Max?
Answer: Its b-arrestin2 Max is 48.7%.

Question: Which IP One EC50 does the source give for ERVYYHP-NH2 [SEQ ID NO: 59 (Glu-Arg-Val-Tyr-Tyr-His-Pro-NH2)] here?
Answer: The IP One EC50 was > 10000 nM.

Question: What about the b-arrestin2 EC50 of the same molecule?
Answer: The b-arrestin2 EC50 was 1400 nM.

Question: And the b-arrestin2 Max?
Answer: The b-arrestin2 Max was 19.5%.

Question: Which IP One EC50 does the source give for RVYVHPI (N-terminal Sar; C-terminal acid) [SEQ ID NO: 11 (Sar-Arg-Val-Tyr-Val-His-Pro-Ile-OH)] here?
Answer: The IP One EC50 was > 10000 nM.

Question: What about the b-arrestin2 EC50 of the same molecule?
Answer: Its b-arrestin2 EC50 is 3.4 nM.

Question: And the b-arrestin2 Max?
Answer: Its b-arrestin2 Max is 58.9%.

Question: RVYIHP-NH2 [SEQ ID NO: 13 (Arg-Val-Tyr-Ile-His-Pro-NH2)] was tested. Which IP One EC50 did it give?
Answer: The IP One EC50 was > 10000 nM.

Question: What about the b-arrestin2 EC50 of the same molecule?
Answer: The b-arrestin2 EC50 was 4600 nM.

Question: What about the b-arrestin2 Max of the same molecule?
Answer: Its b-arrestin2 Max is 43.4%.

Question: Which results are given for RVYVHPI (N-terminal Sar; C-terminal amide) [SEQ ID NO: 12 (Sar-Arg-Val-Tyr-Val-His-Pro-Ile-NH2)]?
Answer: IP One EC50: 190 nM; IP One Max: 20.7%; b-arrestin2 EC50: 390 nM; b-arrestin2 Max: 19.9%

Question: For DRVYYHP (N-methyl; C-terminal amide) [SEQ ID NO: 61 (N-Me-Asp-Arg-Val-Tyr-Tyr-His-Pro-NH2)], which IP One EC50 is on record?
Answer: The IP One EC50 was > 10000 nM.

Question: And the b-arrestin2 EC50?
Answer: The b-arrestin2 EC50 was 1200 nM.

Question: What about the b-arrestin2 Max of the same molecule?
Answer: The b-arrestin2 Max was 37.5%.

Question: What does the source list for RVYYHPI (N-terminal Sar; C-terminal acid) [SEQ ID NO: 14 (Sar-Arg-Val-Tyr-Tyr-His-Pro-Ile-OH)]?
Answer: IP One EC50: 160 nM; IP One Max: 13.5%; b-arrestin2 EC50: 8 nM; b-arrestin2 Max: 59.3%

Question: ERVYYHP (D-residue; C-terminal amide) [SEQ ID NO: 60 (D-Glu-Arg-Val-Tyr-Tyr-His-Pro-NH2)] was tested. Which IP One EC50 did it give?
Answer: The IP One EC50 was > 10000 nM.

Question: What about the b-arrestin2 EC50 of the same molecule?
Answer: Its b-arrestin2 EC50 is 340 nM.

Question: And the b-arrestin2 Max?
Answer: Its b-arrestin2 Max is 44%.

Question: Which results are given for ERVYYHP (N-methyl; C-terminal amide) [SEQ ID NO: 62 (N-Me-Glu-Arg-Val-Tyr-Tyr-His-Pro-NH2)]?
Answer: IP One EC50: > 10000 nM; b-arrestin2 EC50: 1300 nM; b-arrestin2 Max: 24.7%

Question: For DRVYFHP-NH2 [SEQ ID NO: 63 (Asp-Arg-Val-Tyr-Phe-His-Pro-NH2)], which IP One EC50 is on record?
Answer: The IP One EC50 was > 10000 nM.

Question: And the b-arrestin2 EC50?
Answer: The b-arrestin2 EC50 was 530 nM.

Question: And the b-arrestin2 Max?
Answer: The b-arrestin2 Max was 35.9%.

Target: rat angiotensin 2 type 1 receptor (rat) (UniProt P25095)
Assay: cell-based or functional assay
Settings: not given

Question: Which results are given for DRVYYHP (D-residue; C-terminal amide) [SEQ ID NO: 58 (D-Asp-Arg-Val-Tyr-Tyr-His-Pro-NH2)]?
Answer: IP One EC50: 1400 nM; IP One Max: 9.94%; b-arrestin2 EC50: 260 nM; b-arrestin2 Max: 81.1%

Question: How did the IP One EC50 turn out when ERVYYHP-NH2 [SEQ ID NO: 59 (Glu-Arg-Val-Tyr-Tyr-His-Pro-NH2)] was run?
Answer: Its IP One EC50 is > 10000 nM.

Question: And the b-arrestin2 EC50?
Answer: The b-arrestin2 EC50 was 820 nM.

Question: And the b-arrestin2 Max?
Answer: The b-arrestin2 Max was 27.8%.

Question: For RVYVHPI (N-terminal Sar; C-terminal acid) [SEQ ID NO: 11 (Sar-Arg-Val-Tyr-Val-His-Pro-Ile-OH)], which IP One EC50 is on record?
Answer: The IP One EC50 was 3.5 nM.

Question: And the IP One Max?
Answer: The IP One Max was 24.4%.

Question: And the b-arrestin2 EC50?
Answer: The b-arrestin2 EC50 was 6.1 nM.

Question: And the b-arrestin2 Max?
Answer: Its b-arrestin2 Max is 80.7%.

Question: With RVYIHP-NH2 [SEQ ID NO: 13 (Arg-Val-Tyr-Ile-His-Pro-NH2)] as the molecule, how does the IP One EC50 read?
Answer: Its IP One EC50 is > 10000 nM.

Question: What about the b-arrestin2 EC50 of the same molecule?
Answer: The b-arrestin2 EC50 was 43000 nM.

Question: What about the b-arrestin2 Max of the same molecule?
Answer: The b-arrestin2 Max was 165%.

Question: What does the source list for RVYVHPI (N-terminal Sar; C-terminal amide) [SEQ ID NO: 12 (Sar-Arg-Val-Tyr-Val-His-Pro-Ile-NH2)]?
Answer: IP One EC50: 79 nM; IP One Max: 44.9%; b-arrestin2 EC50: 120 nM; b-arrestin2 Max: 34.4%

Question: What does the source list for DRVYYHP (N-methyl; C-terminal amide) [SEQ ID NO: 61 (N-Me-Asp-Arg-Val-Tyr-Tyr-His-Pro-NH2)]?
Answer: IP One EC50: > 10000 nM; b-arrestin2 EC50: 2100 nM; b-arrestin2 Max: 60.4%

Question: With RVYYHPI (N-terminal Sar; C-terminal acid) [SEQ ID NO: 14 (Sar-Arg-Val-Tyr-Tyr-His-Pro-Ile-OH)] as the molecule, how does the IP One EC50 read?
Answer: Its IP One EC50 is 32 nM.

Question: And the IP One Max?
Answer: The IP One Max was 19.3%.

Question: What about the b-arrestin2 EC50 of the same molecule?
Answer: The b-arrestin2 EC50 was 14 nM.

Question: And the b-arrestin2 Max?
Answer: Its b-arrestin2 Max is 79%.

Question: Which IP One EC50 does the source give for ERVYYHP (D-residue; C-terminal amide) [SEQ ID NO: 60 (D-Glu-Arg-Val-Tyr-Tyr-His-Pro-NH2)] here?
Answer: The IP One EC50 was > 10000 nM.

Question: And the b-arrestin2 EC50?
Answer: The b-arrestin2 EC50 was 180 nM.

Question: And the b-arrestin2 Max?
Answer: The b-arrestin2 Max was 79.3%.

Question: Which results are given for ERVYYHP (N-methyl; C-terminal amide) [SEQ ID NO: 62 (N-Me-Glu-Arg-Val-Tyr-Tyr-His-Pro-NH2)]?
Answer: IP One EC50: > 10000 nM; b-arrestin2 EC50: 3900 nM; b-arrestin2 Max: 44.2%

Question: For DRVYFHP-NH2 [SEQ ID NO: 63 (Asp-Arg-Val-Tyr-Phe-His-Pro-NH2)], which IP One EC50 is on record?
Answer: Its IP One EC50 is > 10000 nM.

Question: What about the b-arrestin2 EC50 of the same molecule?
Answer: Its b-arrestin2 EC50 is 530 nM.

Question: And the b-arrestin2 Max?
Answer: The b-arrestin2 Max was 50.1%.

— patent US20240025949A1, “Beta-Arrestin Effectors and Compositions and Methods of Use Thereof” (Trevena, Inc., priority 2021, published 2024)
